Laboratory results from PMC2791020 (The Journal of Biological Chemistry, 2009).

Molecular target: protein kinase A catalytic (C) subunit, wild type (UniProt P05132 2-351)
Test: SPR

B1: RIIβAB, truncated PKA regulatory subunit RIIβ (domain or fragment)
chain: TRRASVCAEAYNPDEEEDDAESRIIHPKTDDQRNRLQEACKDILLFKNLDPEQMSQVLDAMFEKLVKEGEHVIDQGDDGDNFYVIDRGTFDIYVKCDGVGRCVGNYDNRGSFGELALMYNTPRAATITATSPGALWGLDRVTFRRIIVKNNAKKRKMYESFIESLPFLKSLEVSERLKVVDVIGTKVYNDGEQIIAQGDSADSFFIVESGEVRITMKRKGKSDIEENGAVEIARCLRGQYFGELALVTNKPRAASAHAIGTVKCLAMDVQAFERLLGPCMEIMKRNIATYEEQLV
Kd: 2.9 nM | koff: 0.000316 s⁻¹
